These results are taken from the supplement of paper PMC7877785.

± gives the uncertainty stated by the source.

The data set in a line: self-splicing fitness, log relative to wild type (ln ratio); higher = more splicing; Tetrahymena group I intron in knt gene, E. coli kanamycin selection, DiMSum; sequences stand for … in CUCUCU…GGAGGGAAAAGUUAUCAGGCAUGCACCUGGUAGCUAGUCUUUAAACCAAUAGAUUGCAUCGGUUUAAAAGGCAAGACCGUCAAAUUGCGGGAAAGGGGUCAACAGCCGUUCAGUACCAAGUCUCAGGGGAAACUUUGAGAUGGCCUUGCAAAGGGUAUGGUAAUAAGCUGACGGACAUGGUCCUAACCACGCAGCCAAGUCCUAAGUCAACAGAUCUUCUGUUGAUAUGGAUGCAGUUCACAGACUAAAUGUCGGUCGGGGAAGAUGUAUUCUUCUCAUAAGAUAUAGUCGGACCUCUCCUUAAUGGGAGCUAGCGGAUGAAGUGAUGCAACACUGGAGCCGCUGGGAACUAAUUUGUAUGCGAAAGUAUAUUGAUUAGUUUUGGAGUACUCGUGGUCG
A digest of the protocol: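 Fitness was computed with DiMSum as the error-weighted combination of replicate fold changes, kanamycin versus none, each normalised to wild type. The library randomised all eight intron nucleotides of the P1ex region, with the intron placed in the knt kanamycin-resistance gene on pET-22b(+) in E. coli BL21(DE3). Six replicate transformations were grown overnight at 37°C or 30°C on LB agar with or without 25 μg/mL kanamycin, plus 100 μg/mL carbenicillin, 50 μM IPTG and 0.2% rhamnose. Pooled colonies were amplicon-sequenced on an Illumina HiSeq 2500.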

For GAUUAGCAAUAUUACGAAUG, the “self-splicing fitness (ln)” value is -0.837 ± 0.14 (30 °C) and -0.649 ± 0.16 (37 °C).
Consider UCCAAGCAAUAUUACGCUAC, for which the “self-splicing fitness (ln)” value was -3.8 ± 0.27 (30 °C) and -2.48 ± 0.24 (37 °C).
In the same order, the values of AAUUAGCAAUAUUACGUUCA are -0.618 ± 0.1 and -0.409 ± 0.12.
Consider AUUGAGCAAUAUUACGGAAA, for which the “self-splicing fitness (ln)” value runs as follows: (30 °C) -2.56 ± 0.3; (37 °C) -1.7 ± 0.25.
Consider UUUGAGCAAUAUUACGUGAG, for which the “self-splicing fitness (ln)” value is, setting by setting: (30 °C) -1.35 ± 0.11; (37 °C) 0.29 ± 0.14.
Regarding GCUGAGCAAUAUUACGCUUG, the “self-splicing fitness (ln)” value (30 °C) was -3.25 ± 0.29 and the “self-splicing fitness (ln)” value (37 °C) is -1.57 ± 0.29.
Regarding CAGCAGCAAUAUUACGGUAC, the “self-splicing fitness (ln)” value was -3.46 ± 0.14 (30 °C) and -2.26 ± 0.14 (37 °C).
With UCAAAGCAAUAUUACGCUGG, the “self-splicing fitness (ln)” value is, setting by setting: (30 °C) -3.55 ± 0.37; (37 °C) -2.28 ± 0.33.
In the same order, the values of UUAGAGCAAUAUUACGACUA are -1.13 ± 0.31 and -0.676 ± 0.32.
In the same order, the values of AAGCAGCAAUAUUACGACAU are -0.341 ± 0.011 and -0.0663 ± 0.032.
As to ACUCAGCAAUAUUACGCUCG, the “self-splicing fitness (ln)” value is, setting by setting: (30 °C) -0.26 ± 0.087; (37 °C) 0.176 ± 0.12.
In the same order, the values of CCAAAGCAAUAUUACGAGCU are -3.38 ± 0.22 and -2.14 ± 0.22.
In the same order, the values of GUUCAGCAAUAUUACGUCUU are -0.624 ± 0.056 and -0.758 ± 0.064.
AUUCAGCAAUAUUACGAACC: the “self-splicing fitness (ln)” value (30 °C) is -0.503 ± 0.16 and the “self-splicing fitness (ln)” value (37 °C) is -0.325 ± 0.2.
In the same order, the values of CCAGAGCAAUAUUACGUAUU are -3.91 ± 0.18 and -2.41 ± 0.17.
As to AAACAGCAAUAUUACGGCUC, the “self-splicing fitness (ln)” value was -0.311 ± 0.068 (30 °C) and 0.201 ± 0.095 (37 °C).
Take AGCAAGCAAUAUUACGUCCC: the “self-splicing fitness (ln)” value by setting is: (30 °C) -0.545 ± 0.1; (37 °C) -0.16 ± 0.13.
In the same order, the values of CACUAGCAAUAUUACGUAGG are -1.04 ± 0.1 and -0.696 ± 0.14.
In the case of CCUAAGCAAUAUUACGGGUA, the “self-splicing fitness (ln)” value runs as follows: (30 °C) -2.36 ± 0.27; (37 °C) -1.67 ± 0.25.
With AUACAGCAAUAUUACGGGGG, the “self-splicing fitness (ln)” value runs as follows: (30 °C) -3.43 ± 0.25; (37 °C) -2.84 ± 0.25.
With CAUAAGCAAUAUUACGUAGU, the “self-splicing fitness (ln)” value is, setting by setting: (30 °C) -3.82 ± 0.28; (37 °C) -0.576 ± 0.17.
Take AUUCAGCAAUAUUACGGUUU: the “self-splicing fitness (ln)” value was -0.00618 ± 0.064 (30 °C) and -0.247 ± 0.072 (37 °C).
Consider GCGCAGCAAUAUUACGGCCU, for which the “self-splicing fitness (ln)” value (30 °C) is -0.201 ± 0.061 and the “self-splicing fitness (ln)” value (37 °C) came to 0.128 ± 0.072.
Take CAGGAGCAAUAUUACGGCUG: the “self-splicing fitness (ln)” value by setting is: (30 °C) -2.97 ± 0.18; (37 °C) -2.37 ± 0.22.
On to UAAAAGCAAUAUUACGCAAG, for which the “self-splicing fitness (ln)” value reads like this: (30 °C) -1.48 ± 0.06; (37 °C) -0.639 ± 0.073.
Take UCUCAGCAAUAUUACGCUUU: the “self-splicing fitness (ln)” value reads like this: (30 °C) -3.09 ± 0.3; (37 °C) -2.22 ± 0.31.
In the same order, the values of CUCCAGCAAUAUUACGAAAG are -0.942 ± 0.11 and -1.41 ± 0.14.
On to UGCUAGCAAUAUUACGGAGG, for which the “self-splicing fitness (ln)” value (30 °C) is -2.23 ± 0.14 and the “self-splicing fitness (ln)” value (37 °C) was -1.13 ± 0.13.
In the same order, the values of UUGUAGCAAUAUUACGGCGG are -0.508 ± 0.11 and -0.332 ± 0.14.
For CAAUAGCAAUAUUACGAUUC, the “self-splicing fitness (ln)” value is, setting by setting: (30 °C) -3.4 ± 0.14; (37 °C) -1.24 ± 0.14.
With CACUAGCAAUAUUACGCGUA, the “self-splicing fitness (ln)” value reads like this: (30 °C) -1.84 ± 0.093; (37 °C) -0.0161 ± 0.075.
As for AUUUAGCAAUAUUACGGUAC, the “self-splicing fitness (ln)” value (37 °C) was -1.07 ± 0.33.
Take CGGAAGCAAUAUUACGAGUU: the “self-splicing fitness (ln)” value reads like this: (30 °C) -3.29 ± 0.2; (37 °C) -2.49 ± 0.2.
Take ACGUAGCAAUAUUACGUCCU: the “self-splicing fitness (ln)” value (30 °C) was -1.99 ± 0.13 and the “self-splicing fitness (ln)” value (37 °C) is -0.452 ± 0.13.
As for GUGGAGCAAUAUUACGUCAG, the “self-splicing fitness (ln)” value (37 °C) was -2.43 ± 0.46.
Take ACCGAGCAAUAUUACGAGGG: the “self-splicing fitness (ln)” value runs as follows: (30 °C) -3.2 ± 0.17; (37 °C) -3.06 ± 0.21.
Regarding CAAUAGCAAUAUUACGUCCG, the “self-splicing fitness (ln)” value was -0.215 ± 0.1 (30 °C) and -0.267 ± 0.13 (37 °C).
Take ACAAAGCAAUAUUACGCUCA: the “self-splicing fitness (ln)” value (30 °C) was -0.782 ± 0.088 and the “self-splicing fitness (ln)” value (37 °C) turned out to be 0.156 ± 0.11.
Take AGUUAGCAAUAUUACGCGUU: the “self-splicing fitness (ln)” value (30 °C) is -1.32 ± 0.12 and the “self-splicing fitness (ln)” value (37 °C) was -0.816 ± 0.15.
In the same order, the values of ACCAAGCAAUAUUACGGGAU are -2.53 ± 0.088 and -1.39 ± 0.083.
As for UUACAGCAAUAUUACGGGUG, the “self-splicing fitness (ln)” value (30 °C) was -1.05 ± 0.061 and the “self-splicing fitness (ln)” value (37 °C) is -0.414 ± 0.077.
For GAAUAGCAAUAUUACGCGGU, the “self-splicing fitness (ln)” value (30 °C) is -2.24 ± 0.15 and the “self-splicing fitness (ln)” value (37 °C) was -2.75 ± 0.27.
For GGAGAGCAAUAUUACGCCUU, the “self-splicing fitness (ln)” value (30 °C) is -2.58 ± 0.35.
With GAUCAGCAAUAUUACGCGAC, the “self-splicing fitness (ln)” value runs as follows: (30 °C) -1.63 ± 0.15; (37 °C) -1.62 ± 0.15.
UAUUAGCAAUAUUACGGUGC: the “self-splicing fitness (ln)” value runs as follows: (30 °C) -3.77 ± 0.3; (37 °C) -1.84 ± 0.23.
In the same order, the values of AGGAAGCAAUAUUACGAUGU are -1.51 ± 0.087 and -0.634 ± 0.1.
Regarding UUGUAGCAAUAUUACGCAUU, the “self-splicing fitness (ln)” value was -2.84 ± 0.43 (30 °C) and -2.26 ± 0.32 (37 °C).
In the case of CAGGAGCAAUAUUACGAGCA, the “self-splicing fitness (ln)” value was -2.15 ± 0.33 (30 °C) and -1.53 ± 0.36 (37 °C).
In the same order, the values of GGACAGCAAUAUUACGCUGG are -2.75 ± 0.28 and -2 ± 0.34.
As for CCUAAGCAAUAUUACGCCAG, the “self-splicing fitness (ln)” value is, setting by setting: (30 °C) -2.8 ± 0.26; (37 °C) -2.13 ± 0.29.
Regarding UCCGAGCAAUAUUACGUAAU, the “self-splicing fitness (ln)” value was -4.41 ± 0.28 (30 °C) and -1.88 ± 0.18 (37 °C).
Regarding UAGGAGCAAUAUUACGCUGC, the “self-splicing fitness (ln)” value is, setting by setting: (30 °C) -3.05 ± 0.41; (37 °C) -1.03 ± 0.42.
With CAUCAGCAAUAUUACGGCGG, the “self-splicing fitness (ln)” value reads like this: (30 °C) -0.364 ± 0.071; (37 °C) 0.3 ± 0.12.
UAGUAGCAAUAUUACGAUGU: the “self-splicing fitness (ln)” value (37 °C) was -2.22 ± 0.32.
In the case of UAUGAGCAAUAUUACGUCCC, the “self-splicing fitness (ln)” value (30 °C) is -2.74 ± 0.49.
With UUGGAGCAAUAUUACGUGGC, the “self-splicing fitness (ln)” value by setting is: (30 °C) -3.14 ± 0.24; (37 °C) -0.804 ± 0.25.
On to GGGCAGCAAUAUUACGGGGG, for which, for the setting “30 °C”, the “self-splicing fitness (ln)” value is -3.44 ± 0.41.
Regarding UGGGAGCAAUAUUACGCGGC, the “self-splicing fitness (ln)” value runs as follows: (30 °C) -2.57 ± 0.34; (37 °C) -1.35 ± 0.28.
As for UGUAAGCAAUAUUACGCAGU, the “self-splicing fitness (ln)” value is, setting by setting: (30 °C) -2.92 ± 0.22; (37 °C) -2.22 ± 0.24.
In the case of AAAUAGCAAUAUUACGCGAG, the “self-splicing fitness (ln)” value was -1.93 ± 0.17 (30 °C) and -0.639 ± 0.14 (37 °C).
As for AUCAAGCAAUAUUACGAAGG, the “self-splicing fitness (ln)” value reads like this: (30 °C) -3.36 ± 0.19; (37 °C) -2.96 ± 0.26.
For AAGGAGCAAUAUUACGUUGG, the “self-splicing fitness (ln)” value (30 °C) is -4.4 ± 0.27 and the “self-splicing fitness (ln)” value (37 °C) was -2.5 ± 0.25.
